Series [1] has as its target T1, N (ancestral) (SARS-CoV-2 (Wuhan-Hu-1), UniProt P0DTC9 1-419). Description: SV-AUC; […], pH 7.50 ([…], pH 7.4; temperature not given. Particulars: protein: recombinant; tags: 6xHis-TEV, cleaved; chain copies: 2; single strand.
The target of series [2] is T1, N (ancestral). Description: SV-AUC, mass photometry; […], pH 7.50 ([…], pH 7.4; temperature not given. Conditions: protein: recombinant; tags: 6xHis-TEV, cleaved; chain copies: 2; hairpin.

B1: T10 (ssDNA)
DNA: TTTTTTTTTT
Take B1: the binding result with N (ancestral) [1] was “binds”.

B2: SL7 (structured_RNA)
RNA: ACGUGGCUUUGGAGACUCCGUGGAGGAGGUCUUAUCAGAGGCACGU
In the case of B2, in the series with N (ancestral) [2], the binding result was “binds”.

For the origin of these results see article PMC12753105.
